Source: patent publication US7078385B2, “Methods of inhibiting angiogenesis with fragments and homologs of troponin subunit I” (Boston Life Sciences, Inc., priority 1996, dated 2006)

How the values were obtained:
[1] = test system: B16-BL6 melanoma lung metastases; assay: B16-BL6 melanoma lung metastasis model; format: in vivo, C57BL/6 mice
Description: Murine melanoma B16-BL6 were cultured in RPMI 1640 (Gibco) supplemented with 10% (v/v) fetal calf serum (Hyclone), L-glutamine and NaHCO3. Cells were washed with EBSS (Gibco) and trypsinized for 3 to 5 mm with 0.25% TRL/0.2% EDTA to which culture buffer was added for washing. This preparation was then centrifuged for 10 mm at 1000 rpm, the cell pellet resuspended in fresh culture media, cell number determined using a coulter counter and cell viability determined with trypan blue (100% viability). The cell suspension was adjusted to […] for implantation. B16-BL6 cells (5×10^5/0.2 ml) were injected into the tail veins of C57BL/6 mice (approximately 6–7 weeks old). One day following tumor cell inoculation, mice were treated with rTnI systemically, twice per week, with a dose of either 1 mg/kg (n=10) or 20 mg/kg (n=10) or vehicle (150 mM NaCl, 20 mM citrate, pH3) over, a 28 day period. On day 30, animals were sacrificed, the number of lung surface metastases counted and the lungs weighed.

[2] = test system: bovine aortic smooth muscle cells (SMC); assay: Cell specificity: PDGF-BB-stimulated smooth muscle cell proliferation, electronic cell counting; format: cell-based; conditions: doses over 5× higher than the IC50 for capillary EC
Description: BALB/c mouse 3T3 cells were maintained in DME/10, L-glutamine(292 μg/ml) as previously described (Klagsbrun, et al., 1977, Exp. Cell Res. 105, 99–108). Bovine aortic smooth muscle cells (SMC), isolated by explant from the medial layer of bovine aortas, were obtained from Children's Hospital (Boston, Mass.). These cells were cultured in DME/10 on uncoated tissue culture plastic as previously described (D'Amore and Smith, 1993, Growth Factors 8, 61–75).
To determine whether the proliferation of bovine aortic SMC and Balb c/3T3 cells was inhibited by TnI, the following assays were conducted. SMC were plated into multiwell dishes (2.1 cm^2/well) at a density of 10,000 cells/well. After allowing the cells to attach overnight, fresh media was applied containing either 3 ng/ml PDGF-BB alone or in combination with increasing concentrations of purified TnI. Following incubation for 72 hrs at 37° C. in 10% CO2, the cells were rinsed in PBS, detached by trypsinization and counted electronically.

[3] = test system: capillary EC from bovine adrenal cortex, VEGF-stimulated; conditions: read-out: IC50, capillary EC proliferation; VEGF as mitogen
Description: (§1) Capillary EC, isolated from bovine adrenal cortex (Folkman, et al., 1979, Proc. Natl. Acad. Sci. USA 76, 5217–5221) were obtained from Children's Hospital (Boston, Mass.). […] Cells were maintained in culture in DME (Dulbecco's Modified Eagle's Medium, Gibco Laboratories) with 10% calf serum (Hyclone) (DME/10) supplemented with 3 ng/ml bFGF or Vascular Endothelial Growth Factor (VEGF) in preparation for these assays.
(§2) Briefly, capillary EC (2,000 cells per well) were plated on gelatinized 96-Well culture plates in DMEM supplemented with 5% (v/v) calf serum and incubated for 24 hours. On day 2, cells were treated with bFGF (Scios Nova; 1 ng/ml) and challenged with the test fractions and/or with purified TnI. For experiments in which VEGF was used as the mitogen, 800 cells per well were plated and allowed to incubate for 3 hours before VEGF (Biomedical Technologies Incorporated; 30 ng/ml) and TnI was added. Control wells contained cells alone and cells stimulated with bFGF or VEGF. On day 5, growth medium was removed from the plates; cells were lysed in buffer containing the detergent Triton x-100 and the phosphatase substrate p-nitrophenyl phosphate. […] Color development was determined using a rapid multiwell plate reader (Dynatech MR 5000) (Moses, et al., 1990, Science 2488, 1408–1410; Moses, et al., 1990, J. Cell. Biol. 119, 474–481; Connolly, et al., 1986, Anal. Biochem. 152, 136–140).

[4] = test system: bFGF-induced corneal angiogenesis; assay: Mouse corneal pocket assay; format: in vivo, C57BL/6 mice; conditions: 50 mg/kg subcutaneous every 12 hours, sixth day of treatment
Description: Briefly, pellets composed of bFGF (40 ng/ml), sucrose octasulfate and Hydron were implanted into corneal micropockets of six C57BL/6 mice as previously described (U.S. Pat. No. 5,837,680 to Moses et al.). Troponin I (50 mg/kg) was administered systemically every 12 hours by subcutaneous injection. On the sixth day of treatment, corneal angiogenesis was evaluated using slit lamp microscopy and photographed.

[5] = test system: BALB/c mouse 3T3 cells; assay: Cell specificity: tritiated thymidine incorporation in quiescent 3T3 cells; format: cell-based; conditions: doses over 5× higher than the IC50 for capillary EC
[6] = test system: capillary EC DNA synthesis; assay: Tritiated thymidine incorporation, capillary EC DNA synthesis; format: cell-based, bovine; conditions: tritiated thymidine assay
Description: On day one, 5,000 bovine capillary endothelial cells in DMEM/10% CS/1% GPS are plated onto each well of a 96-well pregelatinized tissue culture plate. On day two, the cell media is changed to DMEM, 2% CS, 1% GPS, 0.5% BSA (complete medium), supplemented with 10 μl of 1 mg/ml “cold” thymidine per 50 ml of medium. On day three, test samples in complete medium are added in duplicate. Additionally, […] (bFGF) is added to each well except for the appropriate controls, to a final concentration of 0.2 ng/well. On day four, 5 μl of 1:13 diluted ^3H-Thymidine stock is added to each well and the plate is incubated for 5–6 hours. Following incubation, the medium is aspirated, and the remainder is rinsed once with PBS, then twice for 5 minutes each with methanol followed by two rinses each for 10 minutes with 5% TCA. The cells are then rinsed with water three times, dried to the plate, and 100 μl of 0.3 N NaOH is added to each well. The contents of the well are then transferred to the scintillation counter vials and 3 mls of Ecolume added to each vial. Samples are then counted on the scintillation counter.

[7] = test system: embryonic neovascularization of the chick chorioallantoic membrane; assay: Chick chorioallantoic membrane (CAM) assay; format: in vivo; conditions: 48 h
Description: All procedures were carried out in a laminar flow hood under sterile conditions. The eggs were stored in a Favorite Egg Incubator (Leahy) at 37° C. and 65% relative humidity. On day 3 of development, fertilized White Leghorn eggs (SPAFAS) were cracked and the embryos removed from their shells and placed in plastic petri dishes. On day 6, test substances including native rabbit TnI (Greaser and Gergely, 1971, J. Biol. Chem. 246, 4226–4233) and recombinant human TnI and appropriate buffer controls were mixed in methylcellulose, disks and applied to the surfaces of the growing CAMs above the dense subectodermal plexus.

[8] = test system: capillary EC from bovine adrenal cortex, bFGF-stimulated; assay: bFGF-stimulated capillary EC proliferation (Example 8); format: cell-based; conditions: bFGF as mitogen
Description: as §1, §2

B1: rTnI: recombinant human fast-twitch skeletal muscle troponin I expressed in E. coli, about 21 kDa (SEQ ID NO:17) (protein, listed as Homo sapiens)
chain: MGDEEKRNRAITARRQHLKSVMLQIAATELEKEESRREAEKQNYLAEHCPPLHIPGSMSEVQELCKQLHAKIDAAEEEKYDMEVRVQKTSKELEDMNQKLFDLRGKFKRPPLRRVRMSADAMLKALLGSKHKVCMDLRANLKQVKKEDTEKERDLRDVGDWRKNIEEKSGMEGRKKMFESES
[1]; 1 mg/kg systemically twice weekly, 28 days, day 30
  Inhibition of lung metastases: 52%
[1]; 20 mg/kg systemically twice weekly, 28 days, day 30
  Inhibition of lung metastases: 64%
[1]; 20 mg/kg twice weekly, day 30
  Number of lung surface metastases (mean, SEM): 25.0+/−7.5
[1]; 1 or 20 mg/kg twice weekly, 28 days
  Toxicity (weight or appetite loss): no observed toxicity
[1]; 1 or 20 mg/kg twice weekly, day 30
  Lung weights, treated versus control groups: comparable
[2]
  Suppression of growth of bovine aortic smooth muscle cells: did not suppress the growth
[3]
  IC50: ~1.5 nM
[4]
  Inhibition of bFGF-induced corneal angiogenesis (in words): significantly inhibited
[5]
  Suppression of growth of Balb/c 3T3 cells: did not suppress the growth
[6]
  IC50: ~240 nM
[7]; 130 picomoles
  Eggs with avascular zone (inhibition of embryonic neovascularization): 66%
[7]; approximately 380 picomoles
  Eggs with avascular zone (inhibition of embryonic neovascularization): 100%
[8]
  IC50: ~65 nM
